Source: patent publication US20260022364A1, “ERT2 MUTANTS, INDUCIBLE CELL DEATH SYSTEMS, AND USES THEREOF” (Senti Biosciences, Inc., priority 2023, published 2026)

B1: wild-type ERT2: ERT2 with G400V/M543A/L544A/V595A, SEQ ID NO: 3; benchmark construct (protein)
chain: SAGDMRAANLWPSPLMIKRSKKNSLALSLTADQMVSALLDAEPPILYSEYDPTRPFSEASMMGLLTNLADRELVHMINWAKRVPGFVDLTLHDQVHLLECAWLEILMIGLVWRSMEHPVKLLFAPNLLLDRNQGKCVEGMVEIFDMLLATSSRFRMMNLQGEEFVCLKSIILLNSGVYTFLSSTLKSLEEKDHIHRVLDKITDTLIHLMAKAGLTLQQQHQRLAQLLLILSHIRHMSNKGMEHLYSMKCKNVVPLYDLLLEAADAHRLHAPTSRGGASVEETDQSHLATAGSTSSHSLQKYYITGEAEGFPATA
B2: SB09642: ERT2 mutant transcriptional switch construct pSFFV: ZF10-1_p65_ERT2 domain (Table 23) (protein)
chain: SAGDMRAANLWPSPLMIKRSKKNSLALSLTADQMVSALLDAEPPILYSEYDPTRPFSEASMMGLLTNLADRELVHMINWAKRVPGFVDLTLHDQVHLLECAWMEILMIGLVWRSMEHPVKLLFAPNLVLDRDQGKCVEGLVEIFDMLLATSSRFRMMNLQGEEFVCLKSIILLNSGVYTFLPSTLKSLEEKDHIHRVLDKITDTLIHLMAKAGLTLQQQHQRLAQLLLILSHIRHMSNKGMELLYSMKCKNVVPLYDLLLEAADAHRLHAPTSRGGASVEETDQSHLATAGSTSSHSLQKYYITGEAEGFPATA
modifications: ERT2 domain of ZF10-1_p65_ERT2 construct
B3: SB09626: ERT2 mutant transcriptional switch construct pSFFV: ZF10-1_p65_ERT2 domain (Table 23) (protein)
chain: SAGDMRAANLWPSPLMIKRSKKNSLALSLTADQMVSALLDAEPPILYSEYDPTRPFSEASMMGLLTNLADREIVHMINWAKRVPGFVDLTLHDQVHLLECAWLEILMIGLVWRSMEHPVKLLFAPNLLLDRDQGKCVEGLVEIFDMLLATSSRFRMMNLQGEEFVCLKSIILLNSGVYTFLPSTLKSLEEKDHIHRVLDKITDTLIHLMAKAGLTLQQQHQRLAQLLLILSHIRHMSNKGMELLYSMKCKNVVPLYDLLLEAADAHRLHAPTSRGGASVEETDQSHLATAGSTSSHSLQKYYITGEAEGFPATA
modifications: ERT2 domain of ZF10-1_p65_ERT2 construct
B4: SB09657: ERT2 mutant transcriptional switch construct pSFFV: ZF10-1_p65_ERT2 domain (Table 23) (protein)
chain: SAGDMRAANLWPSPLMIKRSKKNSLALSLTADQMVSALLDAEPPILYSEYDPTRPFSEASMMGLLTNLADREIVHMINWAKRVPGFVDLTLHDQVHLLECAWMEILMIGLVWRSMEHPVKLLFAPNLLLDRDQGKCVEGMVEIFDMLLATSSRFRMMNLQGEEFVCLKSIILLNSGVYTFLPSTLKSLEEKDHIHRVLDKITDTLIHLMAKAGLTLQQQHQRLAQLLLILSHIRHMSNKGMELLYSMKCKNVVPLYDLLLEAADAHRLHAPTSRGGASVEETDQSHLATAGSTSSHSLQKYYITGEAEGFPATA
modifications: ERT2 domain of ZF10-1_p65_ERT2 construct
B5: SB09652: ERT2 mutant transcriptional switch construct pSFFV: ZF10-1_p65_ERT2 domain (Table 23) (protein)
chain: SAGDMRAANLWPSPLMIKRSKKNSLALSLTADQMVSALLDAEPPILYSEYDPTRPFSEASMMGLLTNLADREIVHMINWAKRVPGFVDLTLHDQVHLLECAWLEILMIGVVWRSMEHPVKLLFAPNLLLDRDQGKCVEGLVEIFDMLLATSSRFRMMNLQGEEFVCLKSIILLNSGVYTFLPSTLKSLEEKDHIHRVLDKITDTLIHLMAKAGLTLQQQHQRLAQLLLILSHIRHASNKGMELLYSMKCKNVVPLYDLLLEAADAHRLHAPTSRGGASVEETDQSHLATAGSTSSHSLQKYYITGEAEGFPATA
modifications: ERT2 domain of ZF10-1_p65_ERT2 construct

How the values were obtained:
[1] = cited from earlier work; for estimated concentration in the brain, tissue, organs, and solid tumors / estimated concentration in the serum: tamoxifen orally 20 mg/day
U87MG: 1066 cells = experiment: Modified ER-LBD validation in U87MG with mCherry reporter; type: cell-based; settings: SB01066 reporter
Experimental: About 16 hours before transduction 100k U87MG: 1066 cells were seeded into 16 wells in 12 well plate format. During transduction, cells in each well were transduced with 100k pg of virus of ERT2 variant constructs. After transduction, cells were split into 50k cells per well in a 24 well plate format, and treated with drug-free media or a range of endoxifen or 4-OHT drug conditions. About two days after treatment of cells with endoxifen or 4-OHT, cells were collected and mCherry reporter expression was quantified by flow cytometry.
Screening of the modified ER-LBD construct library identified a subset of ERT2 variants that were sensitive to endoxifen at 1 nM. Among this subset, 15 variants (Table 19) were validated in U87MG cells for their ability to activate an mCherry reporter (SB01066; FIG. 14B) at a range of concentrations of 0 pM, 10 pM, 50 pM, 100 pM, and 1 nM of endoxifen (FIG. 15A) and 4-OHT (FIG. 15B). Expression of mCherry was quantified about […] after treatment with endoxifen or 4-OHT.
Select ERT2 variants (Table 20) from the previous screens were further tested for sensitivity to endoxifen and 4-OHT, compared to wild-type ERT2. […] Fold activation was calculated by gMFI mCherry levels of each test condition divided by gMFI mCherry levels of U87MG cells transduced with the reporter (SB01066).

[2] = test system: U87MG: 1066 reporter cell line; experiment: ERT2 mutant transcriptional switch activity, mCherry reporter; type: cell-based; settings: range of endoxifen concentrations
Experimental: FIG. 26A depicts constructs and experimental methods for evaluating exemplary ERT2 mutant transcriptional switches. U87MG cells were transduced with the mCherry reporter construct SB01066, comprising synthetic promoter comprising a 4×ZF-10 zinc finger binding site (SEQ ID NO: 59) linked to a minimal promoter operably linked to an mCherry encoding sequence. This generated a U87MG: 1066 reporter cell line used for assessing transcriptional switch activity of ERT2 transcriptional switch constructs.
25k U87MG: 1066 reporter transduced line was transduced at a MOI of 1 with various ERT2 transcriptional switch constructs having the following structure: pSFFV: ZF10-1 (zinc finger DNA binding domain, SEQ ID NO: 84)_TCR linker (SEQ ID NO: 86)_p65 (transcriptional activation domain, SEQ ID NO: 64)_[…] linker (SEQ ID NO: 88)_ERT2 domain. The ERT2 mutants included a number of amino acid substitutions in addition to the “WT ERT2” mutations G400V/M543A/L544A/V595A.
The next day, cells were split into no drug or drug titration conditions to evaluate performance at a range of endoxifen and estradiol concentrations. Performance of each ERT2 mutant transcriptional switch was evaluated by their ability to translocate and bind to the zinc finger binding site upstream of mCherry and initiate mCherry expression.
The background normalized ND (0) conditions were divided by the average NV gMFI mCherry value in order to reflect any basal activity seen by each mutant. FIG. 26C depicts induced mCherry expression plotted against basal activity for each of the tested ERT2 transcriptional switch constructs.

[3] = test system: U87MG: 2357 reporter cell line; experiment: ERT2 mutant transcriptional switch inducing an IL-12 payload (IL-12p70 ELISA); type: cell-based; settings: 72 hours
Experimental: FIG. 28A depicts constructs and experimental methods for evaluating exemplary ERT2 mutant transcriptional switches for inducing expression of an IL-12 payload. U87MG cells were transduced with construct SB02357, comprising synthetic promoter comprising a 4×ZF-10 zinc finger binding site (SEQ ID NO: 59) linked to a minimal promoter operably linked to an IL-12 encoding sequence. This generated a U87MG: 2357 reporter cell line used for assessing the ability of ERT2 transcriptional switch constructs to activate transcription of the IL-12 payload in a ligand-dependent manner.
25k U87MG: 2357 IL-12 payload transduced line was transduced with MOI of 1 of the ERT2 constructs SB03422, SB06149, SB09626, SB09642, SB09652, and SB09657, which are described in Example 9. […] The next day, cells were split into ND or drug titration conditions to evaluate performance at a range of Endoxifen and concentrations. 72 hours later, supernatant was harvested for quantification of IL-12 by IL-12p70 ELISA. IL-12 levels were read with a spectrophotometer at wavelength 450 nm with wavelength correction to 540 nm according to manufacturer's protocol. A kit-provided standard to calculate detected levels of IL-12 in 100 μL of media harvested from ˜100k cells based on OD.

Molecule	fold activation and induced mCherry levels compared to WT (SB03422) [2]	endoxifen concentration at which IL-12 expression is induced [3] [nM]	also measured
CC/C(=C(\c1ccc(O)cc1)c1ccc(OCCN(C)C)cc1)c1ccccc1 [Construct 4-OHT, 4-hydroxytamoxifen]			estimated concentration in the brain, tissue, organs, and solid tumors [1]: 0.4 nM; estimated concentration in the serum [1]: 0.04 nM
CC/C(=C(\c1ccc(O)cc1)c1ccc(OCCNC)cc1)c1ccccc1 [endoxifen]			estimated concentration in the brain, tissue, organs, and solid tumors [1]: 2.5 nM; estimated concentration in the serum [1]: 0.25 nM
CC/C(=C(\c1ccccc1)c1ccc(OCCN(C)C)cc1)c1ccccc1 [tamoxifen]			average peak plasma concentration ([1]; typical clinical dose of tamoxifen): approximately 40 ng/ml
B1			4-OHT concentration at which mCherry reporter expression is activated (U87MG: 1066 cells): about 25 nM; endoxifen concentration at which mCherry reporter expression is activated (U87MG: 1066 cells): about 25 nM
B2	highest fold activation and induced mCherry levels	0.1	
B3	highest fold activation and induced mCherry levels	0.1	
B4	highest fold activation and induced mCherry levels	0.1	
B5	highest fold activation and induced mCherry levels	0.1	
